Stoichiometry N data for 2 molecules are collected here from PMC9164268.

One may read the stoichiometry N as the number of molecules, sites or subunits per partner or assembly.

Assay [1] concerns the target T1, surfactant protein D (human), P35247.
T1 chain: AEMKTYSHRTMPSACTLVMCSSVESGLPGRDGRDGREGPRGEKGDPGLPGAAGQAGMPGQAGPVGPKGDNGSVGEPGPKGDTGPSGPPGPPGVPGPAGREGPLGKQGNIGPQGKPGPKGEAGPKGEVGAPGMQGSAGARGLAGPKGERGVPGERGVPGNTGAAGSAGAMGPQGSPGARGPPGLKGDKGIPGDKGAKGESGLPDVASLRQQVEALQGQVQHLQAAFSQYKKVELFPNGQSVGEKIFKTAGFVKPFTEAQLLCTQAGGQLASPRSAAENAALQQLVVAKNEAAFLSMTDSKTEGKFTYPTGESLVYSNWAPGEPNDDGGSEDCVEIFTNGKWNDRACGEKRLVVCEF
Nature of the assay: SEC; Sephadex G-200 column (1.5 x 12 cm, 20 mL), 0.05 M HNaPO4, 0.15 M NaCl, pH 7; 1.5 mg/mL protein loaded, 12 x 1 mL fractions, isocratic; protein in fractions by Bradford assay and slot blot with anti-SPD and anti-MAA. The note with it: remark: other sources report otherwise. On the technique in general: SEC sorts molecules by how far they enter the pores of the column.

The target of assay [2] is T2, MAA-adducted surfactant protein D (human), P35247.
T2 chain: T1 chain
The assay is described as above. Conditions: remark: other sources report otherwise.

B1: surfactant protein D, P35247 21-375 (natural protein)
chain: T1 chain
Regarding B1, the stoichiometry N in assay [1] is 3.

B2: MAA-adducted surfactant protein D, P35247 21-375 (natural protein)
chain: T1 chain
modifications: here or on the partner: malondialdehyde-acetaldehyde (MAA) adducts; MAA adduction occurs primarily on lysine residues; positions not given; malondialdehyde-acetaldehyde (MAA) adducts; MAA adduction occurs primarily on lysine residues; positions not given
Turning to B2, the stoichiometry N in assay [2] amounted to 3.
